Here are results for one molecule from US20260042827A1, “ANTI-WT1 ANTIGEN-BINDING PROTEINS AND USES THEREOF” (UNIVERSITY HEALTH NETWORK, priority 2022, published 2026).

This assay has as its system WT1 peptide presented by HLA-DP molecules on K562 transfectants. The assay is described as follows: Flow cytometric staining of K562 transfectants with WT1-specific mAb. Format: cell-based, human. The settings on record: flow cytometry; for recognition of naturally processed WT1 peptide on K562/DP cells: K562/DP2 and K562/DP4, endogenous or ectopic WT1; for recognition of exogenously-pulsed WT1 peptide presented by DP molecules: K562 transfectants pulsed with WT1 peptide. Here is the method:
FIGS. 5A-5S present data showing that WT1-specific mAbs bind to WTT peptide presented by HLA-DP molecules. FIGS. 5A-5B show binding of B7/21 (an anti-HLA-DP mAb) or WT1-specific mAbs to immobilized WT1 peptide or DP4/WT1 monomers as assessed by ELISA. m Abs were added to ELISA plate coated with WT1330-348 or CLIP (control) (FIG. 5A). mAbs were added to ELISA plate coated with DP4/WT1330-348 monomers or DP4/CLIP monomers (control) (FIG. 5B). The data shown represent the mean±SD of experiments performed in triplicates. Results are representative of two independent experiments. ns, not significant, *p<0.05, **p<0.01, ***p<0.001, ****p<0.0001 by two-way ANOVA with Bonferroni correction. […] Interaction strength was measured by a BLI binding assay. FIGS. 5F-5K show the indicated K562 transfectants pulsed with WT1330-348 or CLIP (control) and stained with WT1-specific mAb, 5H2, followed by PE-conjugated anti-mouse secondary Ab and flow cytometric analysis. FIGS. 5L-5S show the indicated K562 transfectants stained with WT1-specific mAb, 5H2, or isotype control mAb, followed by PE-conjugated anti-mouse secondary Ab and flow cytometric analysis.
For surface staining, cells were pelleted and resuspended in a mAb master mix diluted in a PBS/2% FBS buffer. Cells were incubated at 4° C. for 15 minutes and washed prior to analysis. Monoclonal antibodies recognizing the following targets were used for surface staining: CD4 (300505, 1:40, BioLegend), CD8 (301007, 1:100, BioLegend), pan HLA class II (361703, 1:100, BioLegend), NGFR (345131, 1:40, BioLegend), CD25 (301007, 1:100, BioLegend), CD62L (304805, 1:25, BioLegend), CD45RA (304111, 1:10, BioLegend), PD-1 (329905, 1:40, BioLegend), Tim-3 (345007, 1:20, BioLegend). Mouse isotype controls were purchased from BioLegend. Biotinylated Protein-L was purchased from GenScript. For intracellular cytokine staining, TCR or CAR-T cells were stimulated with indicated target cells at an E:T ratio of 1:1. Brefeldin A (BioLegend) was added to the culture media after 2 hours, and the cells were further cultured for 4 hours. Following the surface marker staining, the cells were fixed and permeabilized using the Cytofix/Cytoperm Kit (BD Biosciences) and stained with FITC-anti-IL-2 (500305, 1:20, BioLegend), APC-anti-TNF-α (502913, 1:100, BioLegend), and PE-Cy7-anti-IFN-7 (506517, 1:200, BioLegend). The frequency of cytokine-producing cells within the CD8^+ or CD4^+ T cell population was determined by flow cytometric analysis. For intracellular WT1 staining, cells were fixed and permeabilized using the Cytofix/Cytoperm Kit (BD Biosciences) and stained with mouse anti-WT1 mAb (NB110-60011SS, 1:200, Novus Biologicals), followed by BV421-anti-mouse IgG (405317, 1:20, BioLegend). […]
A general note: In flow cytometry, cells or beads pass a laser one at a time.

B1: 5H2: mouse WT1-specific mAb raised against WT1330-348 peptide; VH SEQ ID NO: 37, VL SEQ ID NO: 38 (antibody, V domains shown)
VH: EVQLQQSGAELVRPGALVKLSCKASGFNIKDYYMHWVKQRPEQGLEWIGWIDPENGNTIYDPKFQGKASITADTSSNTAYLQLSSLTSGDTAVYYCTRDGYYMVFAYWGQGTLVTVSA
VL: DIQMTQSPSSLSASLGGKVTITCKASQDINKCIAWYKHKPGKGPRLLIHYTSILQPGIPSRFSGSGSGRDYSFSISNLEPEDIATYYCLQYDNLYTFGGGTKLEIK
modifications: 5H2 - VH; 5H2 - VL
As to B1, the “recognition of naturally processed WT1 peptide on K562/DP cells” value is “can bind to K562/DP2 and K562/DP4 cells which express endogenous WT1”; the “recognition of exogenously-pulsed WT1 peptide presented by DP molecules” value is “can recognize exogenously-pulsed WT1330-348 presented by multiple DP molecules such as DP2 and DP5 in addition to DP4”. For the same molecule, under “listed as WT1-specific mAb”, the “recognition of naturally processed WT1 peptide on K562/DP cells” value is recorded as “can recognize naturally processed WT1 peptide presented by HLA-DP2” and the “recognition of exogenously-pulsed WT1 peptide presented by DP molecules” value is “can recognize exogenously-pulsed WT1328-348 peptide presented by different HLA-DP molecules”.
